Data reported in patent US6429297B1, “Modified avidin and streptavidin and methods of use thereof” (University of Rochester, priority 1995, dated 2002).
Like-named read-outs stand apart in the source and are kept apart here.

How the values were obtained:
[1] = blood clearance of ^131I-labelled modified SA and Avid in rabbits; conditions: rabbit, ^131I label, over 2 hours
Procedure: (§1) The blood clearance kinetics of the compounds of the present invention can be assessed by in vivo assays. The modified Avid and SA compounds are detectably labeled, for example by radiolabeling, injected into animals, and blood clearance is then determined by biodistribution analysis of radiolabeled samples. For example, the compounds of the present invention can be radiolabeled with ^131I by the Pierce lodobead method (Pierce, Rodeford, Ill.) and separated from free iodine for example by ultrafiltration using CENTRICON-30 filters. Experimental animals, for example, rabbits weighing about 3 kilograms, are fasted, anesthetized, and an external jugular vein is dissected and catheterized for injection and collection of blood samples. A radiolabeled compound of the present invention is injected. Whole blood samples are taken at various time intervals for about two hours. By comparing the blood clearance of galactose-modified SA with native SA, and Avid-E, the skilled artisan can determine the extent of modification that results in optimal blood clearance.
(§2) SA and Avid, 0.5 mg, were radiolabeled with starting activities of ˜0.3 mCi ^131I and ˜0.1 mCi ^131I, respectively.
(§3) Biodistribution was determined in vivo. New Zealand White rabbits, ˜3 kg, (n=3 per experiment) were fasted for 12 hours prior to the experiment and anesthetized using an intramuscular injection of chlorpromazine (25 mg/kg) followed by intravenous sodium pentobarbital (15 mg/kg). An external jugular vein was dissected and catheterized using a 5 French straight catheter for injection and collection of whole blood. The animal was placed in a supine position under the gamma camera for imaging and was then injected with [75 μg] of the radiolabeled proteins prepared above. Whole blood samples (2-3 ml) were taken at intervals for 2 hours. Planar gamma camera images (30K count acquisition) were taken at 5, 30, 60 and 120 minutes. At two hours, animals were euthanized. Major organs were removed, weighed and representative samples taken for biodistribution analysis. Blood volume was estimated to be 6% of total body weight.

[2] = biodistribution and gamma camera imaging of ^131I-labelled modified SA and Avid in rabbits; conditions: rabbit; for kidney accumulation (biodistribution) / liver accumulation (biodistribution): 2 hours after injection; for planar gamma camera images, location of activity: images at 5, 30 and 120 minutes
Procedure: as §2, §3

[3] = DACB (biotin chelate) saturation / biotin binding assay
Procedure: The ability of the compounds of the present invention to bind to biotin can be assessed by in vitro assays known to one of ordinary skill in the art. For example, the compounds of the present invention are incubated with a molar excess of radiolabeled biotin under conditions sufficient for avidin-biotin or streptavidin-biotin binding. Biotin bound to the tested compound is separated from unbound biotin, for example by filtration. The bound biotin/modified Avid or SA ratio is determined by dividing the activity in the retentate by the specific activity of the radiolabeled biotin. The binding ratios for each modified Avid or SA compound are determined by dividing the bound moles of biotin by the moles of each compound.
In a preferred embodiment, the radiolabeled biotin is the biotin chelate deferoxamineacetylcysteinylbiotin (DACB) labeled with ^67Ga. DACB is known in the art and described for example by Rosebrough et al (1993) J. Pharm. Exp. Therap. 265:408 and in U.S. Pat. No. 5,326,778. DACB can be radiolabeled by direct addition of carrier free ^67Ga citrate (DuPont Merck Pharmaceutical Co., Billerica, Mass.). Samples of Avid, SA, modified Avid, and modified SA are incubated with a 20/1 molar excess of ^67Ga-DACB on CENTRICON-30 filters (Amicon, Beverly, Mass.) in 0.05M Tris/0.15M NaCl, pH 7.5. After two washings, the bound DACB/protein ratio is determined by dividing the bound activity in the retentate by the specific activity of ^67Ga-DACB. The binding ratio for each compound is determined by dividing the bound moles of DACB by the moles of streptavidin. […]
The purified DACB was then used to access the ability of the compounds prepared in accordance with Examples I-III to bind to biotin. […] After 2 washings, the bound DACB/protein ratio was determined by dividing the bound activity in the retentate by the specific activity of ^67Ga DACB (˜2×10^16 cpm/mole). The binding ratios for each sample were determined by dividing the bound moles of DACB by the moles of each protein. […]

[4] = rabbit, in vivo
Procedure: as §2, §3

[5] = rabbit, in vivo; remark: listed apart in the source
Procedure: as §1, §2, §3

[6] = set-up: species or system rabbits; conditions: rabbit, in vivo, 0.12 mg
Procedure: 0.3 mg of SA-Tgal or SA-pTgal were-added to a microcentrifuge tube containing ˜0.5 mCi of I-131. Three Iodobeads were added and then mixed and incubated for 12 minutes at room temperature. Free I-131 was removed by ultrafiltration using centricon-30 filters. SA-Tgal and SA-pTgal concentration was determined spectrophotometrically. (E^1%280 nm=34)
0.12 mg of I-131 SA-Tgal and I-131 SA-pTgal were injected into rabbits for two hours. […] The liver accumulation for SA-Tgal was 90% compared to 16% for SA-pTgal.

Substance: avidin [reference compound]
- blood clearance (in words) [1]: cleared quickly
- kidney accumulation (biodistribution) [2]: accumulated mostly in the liver and kidney
- liver accumulation (biodistribution) [2]: accumulated mostly in the liver and kidney
- planar gamma camera images, location of activity [2]: exclusively in the liver and kidneys

Substance: Avid-N: avidin neutralized by acetylation of its lysine amino acids
- blood clearance (in words) [1]: cleared slower than native Avid
- DACB saturation analysis ([3]; sample made at NHS-Ac/Avid molar ratio 10): approximated the binding of DACB to native avidin
- DACB saturation analysis ([3]; sample made at NHS-Ac/Avid molar ratio 25): approximated the binding of DACB to native avidin
- kidney accumulation (biodistribution) [2]: decreased considerably
- liver accumulation (biodistribution) [2]: high liver accumulation
- planar gamma camera images, location of activity [2]: dramatic reduction in kidney activity and a corresponding increase in liver activity

Substance: streptavidin [SA]
- planar gamma camera images, location of activity [4]: vascular activity as indicated by systemic circulation and cardiac activity
- percent of injected dose circulating in the blood at 2 hours [5]: greater than 50%
- DACB binding ratio (bound moles DACB per mole protein) ([3]; 20/1 molar excess ^67Ga DACB, pH 7.5): 3.6

Substance: SA-pTgal: acetylated Tgal modified streptavidin
- blood clearance (in words) [6]: much slower than that of the SA-Tgal

Substance: Avid-E/N: avidin both neutralized and deglycosylated
- blood clearance (in words) [1]: substantially prolonged
- kidney accumulation (biodistribution) [2]: low levels in both the kidney and liver
- liver accumulation (biodistribution) [2]: low levels in both the kidney and liver
- planar gamma camera images, location of activity [2]: circulatory activity with a corresponding decrease in liver and kidney activity
